According to the Human Domainome abundance scans (Beltran et al. 2025):
± gives the uncertainty stated by the source.

B1: Ankyrin-1, residues 1405 to 1484; numbered along this chain, P16157 (parent)
chain: MKMAVISEHLGLSWAELARELQFSVEDINRIRVENPNSLLEQSVALLNLWVIREGQNANMENLYTALQSIDRGEIVNMLE

Variants of: B1
Test: abundance fitness (aPCA) (normalised: wild type 0, dead -1); higher = more abundant; growth selection in yeast, the domain comes from the species named
Conditions: Homo sapiens

First: MKMAVISEHLGLSWAELARELQFSVEDINRIRVENPNSLLEQSVALLNLWVIREGQNANMENLYTALQSIDRGEIVNMLP [E80P]
Second: MKMAVISHHLGLSWAELARELQFSVEDINRIRVENPNSLLEQSVALLNLWVIREGQNANMENLYTALQSIDRGEIVNMLE [E8H]
The abundance fitness of the first is higher: 0.049 ± 0.21 for the first, -0.398 ± 0.18 for the second.

First: MKMAVISKHLGLSWAELARELQFSVEDINRIRVENPNSLLEQSVALLNLWVIREGQNANMENLYTALQSIDRGEIVNMLE [E8K]
Second: MKMAVISFHLGLSWAELARELQFSVEDINRIRVENPNSLLEQSVALLNLWVIREGQNANMENLYTALQSIDRGEIVNMLE [E8F]
The abundance fitness of the first is higher: 0.075 ± 0.14 for the first, -0.424 ± 0.11 for the second.

Going from MKMAVISVHLGLSWAELARELQFSVEDINRIRVENPNSLLEQSVALLNLWVIREGQNANMENLYTALQSIDRGEIVNMLE [E8V] to MQMAVISEHLGLSWAELARELQFSVEDINRIRVENPNSLLEQSVALLNLWVIREGQNANMENLYTALQSIDRGEIVNMLE [K2Q], the abundance fitness rises from -0.518 ± 0.065 to -0.155 ± 0.11.

MKMAVISEHLGLSWAELARELQFSVEDINRIRVENPNSLLEQSVALTNLWVIREGQNANMENLYTALQSIDRGEIVNMLE [L47T] and MKMAVISEHLGLSWAELARELQFSVEDINRIRVENPNSGLEQSVALLNLWVIREGQNANMENLYTALQSIDRGEIVNMLE [L39G] are within error of each other in abundance fitness: -0.628 ± 0.15 for the first, -0.423 ± 0.15 for the second.

First: MKMAVISEHLGLSWAELARELQFSVEDINRIRVENPNSLLEQSVALLNLWVIREGQNANMENLYTAIQSIDRGEIVNMLE [L67I]
Second: MKLAVISEHLGLSWAELARELQFSVEDINRIRVENPNSLLEQSVALLNLWVIREGQNANMENLYTALQSIDRGEIVNMLE [M3L]
The abundance fitness of the first is lower: -0.156 ± 0.14 for the first, 0.208 ± 0.049 for the second.

Going from MKNAVISEHLGLSWAELARELQFSVEDINRIRVENPNSLLEQSVALLNLWVIREGQNANMENLYTALQSIDRGEIVNMLE [M3N] to MKMAVISEHLGLSWAELARELQFSVEDINRVRVENPNSLLEQSVALLNLWVIREGQNANMENLYTALQSIDRGEIVNMLE [I31V], the abundance fitness rises from -0.748 ± 0.47 to -0.192 ± 0.057.

MKMAVISEHLGLSWAELARELQFSVEDINRCRVENPNSLLEQSVALLNLWVIREGQNANMENLYTALQSIDRGEIVNMLE [I31C] and MKMAVISEHLGLSWAELARELQFSVEDINRPRVENPNSLLEQSVALLNLWVIREGQNANMENLYTALQSIDRGEIVNMLE [I31P] are within error of each other in abundance fitness: -0.872 ± 0.2 for the first, -0.639 ± 0.29 for the second.

MKMAVISEHLGLSWAELARELQFSVEDINRIRVENPNSLLEQSVALLNLWVIREGQNANMENLYTELQSIDRGEIVNMLE [A66E] and MKMAVISEHLGLSWAELARELQFSVEDINRIRVENPNSLLEQSVALLNLWVICEGQNANMENLYTALQSIDRGEIVNMLE [R53C] are within error of each other in abundance fitness: -0.85 ± 0.17 for the first, -0.797 ± 0.2 for the second.

Going from MKMAVISEHLGLSWAELARELQFSVEDINRIRVENPNSLLEQSVALLNLWVIFEGQNANMENLYTALQSIDRGEIVNMLE [R53F] to MKMAVISEHLGLSWAELARELQFSVIDINRIRVENPNSLLEQSVALLNLWVIREGQNANMENLYTALQSIDRGEIVNMLE [E26I], the abundance fitness rises from -0.927 ± 0.22 to -0.303 ± 0.15.

MKMAVISEHLGLSWAELARELQFSVEDINRIRVENPNSLLEQSVALLNLWLIREGQNANMENLYTALQSIDRGEIVNMLE [V51L] and MKMAVISEHLGLSWAELARELQFSVEDINRIRVENPNSLLEQSVALLNLWGIREGQNANMENLYTALQSIDRGEIVNMLE [V51G] are within error of each other in abundance fitness: 0.053 ± 0.077 for the first, -0.001 ± 0.05 for the second.

Compared with MKMAVISEHLGLSWAELARELQFSVEDINRIRVENPTSLLEQSVALLNLWVIREGQNANMENLYTALQSIDRGEIVNMLE [N37T], MKMAVISEHLGLSWAELARELQFSVEDENRIRVENPNSLLEQSVALLNLWVIREGQNANMENLYTALQSIDRGEIVNMLE [I28E] is lower in abundance fitness: -0.111 ± 0.18 for the first, -0.627 ± 0.11 for the second.

MKMAVISEHLGLSWAELARELQFSVEDINRIRVEEPNSLLEQSVALLNLWVIREGQNANMENLYTALQSIDRGEIVNMLE [N35E] and MKMAYISEHLGLSWAELARELQFSVEDINRIRVENPNSLLEQSVALLNLWVIREGQNANMENLYTALQSIDRGEIVNMLE [V5Y] are within error of each other in abundance fitness: 0.051 ± 0.39 for the first, 0.086 ± 0.091 for the second.

First: MKMAMISEHLGLSWAELARELQFSVEDINRIRVENPNSLLEQSVALLNLWVIREGQNANMENLYTALQSIDRGEIVNMLE [V5M]
Second: MKMAQISEHLGLSWAELARELQFSVEDINRIRVENPNSLLEQSVALLNLWVIREGQNANMENLYTALQSIDRGEIVNMLE [V5Q]
The abundance fitness of the first is higher: -0.092 ± 0.11 for the first, -0.483 ± 0.16 for the second.

MKMAVISEHLGLSWAELARELQFSVEDINRIRVENPNSLLEQSVALLNLWVIREGQNINMENLYTALQSIDRGEIVNMLE [A58I] and MKMAVISEHLGLSWAELARELQFSVEDINRIRVENPNSLLEQSVALLNLWVIREGQNMNMENLYTALQSIDRGEIVNMLE [A58M] are within error of each other in abundance fitness: -0.008 ± 0.19 for the first, 0.122 ± 0.17 for the second.

MKMAVISEHLGLSWAELARELQFSVEDINRIRVENPNSLLEQSVAWLNLWVIREGQNANMENLYTALQSIDRGEIVNMLE [L46W] and MKMAVISEHLGLSWAELARELQFSVEDINRIRVENPNSLLEQSVANLNLWVIREGQNANMENLYTALQSIDRGEIVNMLE [L46N] are within error of each other in abundance fitness: -0.638 ± 0.096 for the first, -0.878 ± 0.36 for the second.

MKMAVISEHLGLSWAELARELQFSVEDINRIRVENPNSLLEQSVAFLNLWVIREGQNANMENLYTALQSIDRGEIVNMLE [L46F] and MKMAVISEHLGLSWAELARELQFSVEDINRIRVENPNSLLEQSVALLNLWVIREGQNAGMENLYTALQSIDRGEIVNMLE [N59G] are within error of each other in abundance fitness: -0.204 ± 0.14 for the first, -0.151 ± 0.058 for the second.

MKMAVISEHLGLSWAELARELQNSVEDINRIRVENPNSLLEQSVALLNLWVIREGQNANMENLYTALQSIDRGEIVNMLE [F23N] and MKMAVISEHLGLSWAELARELQPSVEDINRIRVENPNSLLEQSVALLNLWVIREGQNANMENLYTALQSIDRGEIVNMLE [F23P] are within error of each other in abundance fitness: -1.02 ± 0.32 for the first, -0.918 ± 0.21 for the second.

MKMAVISEHLGLSDAELARELQFSVEDINRIRVENPNSLLEQSVALLNLWVIREGQNANMENLYTALQSIDRGEIVNMLE [W14D] showed an abundance fitness of -0.907 ± 0.28.
